{"source": "patent EP0956864A1", "about": "“TISSUE FIBROSIS INHIBITOR” (KYOWA HAKKO KOGYO CO., LTD., priority 1996, dated 1998)", "molecules": {"B1": {"name": "PEG modified rat arginase: recombinant rat arginase modified with methoxy polyethylene glycol propionic acid N-hydroxysuccinimide ester, average molecular weight about 5,000 (conjugate, UniProt P07824 1-323, looked up)", "Arginase-1": "MSSKPKPIEIIGAPFSKGQPRGGVEKGPAALRKAGLVEKLKETEYNVRDHGDLAFVDVPNDSPFQIVKNPRSVGKANEQLAAVVAETQKNGTISVVLGGDHSMAIGSISGHARVHPDLCVIWVDAHTDINTPLTTSSGNLHGQPVAFLLKELKGKFPDVPGFSWVTPCISAKDIVYIGLRDVDPGEHYIIKTLGIKYFSMTEVDKLGIGKVMEETFSYLLGRKKRPIHLSFDVDGLDPVFTPATGTPVVGGLSYREGLYITEEIYKTGLLSGLDIMEVNPTLGKTPEEVTRTVNTAVALTLSCFGTKREGNHKPETDYLKPPK", "modifications": "methoxy PEG 5000 conjugated"}}, "key": {"[1]": {"system": "Rat2 cells", "experiment": "Cell growth inhibiting activity in rat fibroblast cell line Rat2 (MTT method)", "assay_type": "cell-based", "settings": "1.5 µg/ml; compared with LP6 to LP10", "description": "The assay of growth inhibiting activity using the rat fetal fibroblast as above mentioned has an insufficient sensitivity and needs complicated operations; therefore, a higher sensitive assay of the growth inhibiting activity using rat fibroblasts, Rat2 cells, was established. This assay will be described hereinbelow.\nRat fibroblast cell line Rat2 (ATCC CRL-1764) was cultured in Eagle MEM medium containing 10% bovine serum (Science, 130, 432 (1959)) in the presence of 5% carbon dioxide at 37°C.\nThe number of Rat2 cells can be measured by any method which can be used for quantitative determination of cell growth. […] Procedures for quantitatively determining the number of cells by the MTT method and assaying the cell growth inhibiting activity of a sample will be described herein. […]\nThereafter, PBS containing 1 to 10 mg/ml, preferably 5 mg/ml, of MTT reagent is added at 1 to 100 µl/well, preferably 10 µl/well, and further incubated for 1 to 8 hours, preferably 4 hours. […] The absorbance of the dissolved formazan dye at 540 nm is measured to thereby quantitatively determine the number of cells. […]\nThe number of Rat2 cells may be measured by any method which can be used to determine cell growth in a quantitative manner. The number of cells was quantitatively determined by the MTT method herein to measure the cell growth inhibiting activity in the liver perfusates LP6 to LP10. […]"}, "[2]": {"experiment": "Arginase activity assay (Garganta and Bond)", "assay_type": "biochemical", "settings": "purified preparation", "description": "The elution of protein was monitored by measuring absorbance at 280 nm. Effluents were collected by a fraction collector and each fraction was estimated according to the method of measuring arginase activity as reported by Garganta and Bond: Analytical Biochemistry, 154, 388 (1986).\nThe SP-Sepharose human arginase fraction contained 1360 mg of proteins and the purity of human arginase was 90% or higher. […] The amount of proteins herein means the value calculated as bovine serum albumin using BIO-RAD protein assay kit."}, "[3]": {"experiment": "Arginine concentration in blood (plasma) after administration to rats", "assay_type": "in vivo, SD rats", "settings": "0.5 ml of 200 µg/ml per rat into penis veniplex; 1, 3, 6, 24 hours and 1 to 14 days", "description": "2. Kinetics of PEG modified rat arginase in rat blood\nMale SD rats (body weight of 220 to 240 G) were purchased from Nippon SLC and tested after about 1 week breeding. […] After inhalation anesthesia with diethyl ether, each sample was administered to penis veniplex at a dose of 0.5 ml per rat by means of a disposable plastic syringe (Terumo).\nTo determine the change with the passage of time, the blood was taken from the same individual at 1, 3, 6 and 24 hours or 1, 3, 7, 10 and 14 days. The animals were bled from the tail veins at 0.3 ml per animal by a method that causes a minimum effect on the animals. Each rat was fixed in a retaining trap (Natsume Seisakusho) so that it could move only the tail freely, and a disposable injection needle (Terumo, 23x1\" ) was cut at the part connecting to the syringe and inserted into the tail vein. The vein blood dripped from the cut end was received in a sample tube (Eppendorph, volume of 1.5 ml) containing 10 µl of 5% EDTA.2K solution as an anticoagulant. After slightly shaking to confirm the absence of coagulation, the blood was centrifuged at 3,000 rpm for 10 minutes to yield plasma. The plasma sample was freezed and stored at -80°C until analysis. Prior to use, the sample was thawed and centrifuged at 3,000 rpm for 10 minutes to remove insoluble matters. […]"}}}
{"molecule": "B1", "values": [{"measurement": "rat fibroblast Rat-2 growth inhibiting activity", "setting": "[1]", "value": "identical with that obtained when 1.25% LP6 to LP10 were added"}, {"measurement": "arginase activity", "setting": "[2]", "value": 2358, "unit": "U/ml"}, {"measurement": "arginine concentration in blood", "setting": "[3]", "value": "Sustained inhibiting effects"}]}
